Reference: PMC8626535
Blank lines part the entries; values can stand above or below the molecule they belong to.

Key:
[1] = target: NKp30-Fc (human) (UniProt O14931); assay: BLI
[2] = target: CC3-Fc (human) (UniProt O14931); assay: BLI

- Kd [1]: 1300 nM
Molecule: Soluble monomeric B7H6-His (from UniProt Q68D85 25-262) (domain or fragment)

- Kd [2]: 680 nM
B1: Soluble monomeric B7H6-His (domain or fragment)
chain: DLKVEMMAGGTQITPLNDNVTIFCNIFYSQPLNITSMGITWFWKSLTFDKEVKVFEFFGDHQEAFRPGAIVSPWRLKSGDASLRLPGIQLEEAGEYRCEVVVTPLKAQGTVQLEVVASPASRLLLDQVGMKENEDKYMCESSGFYPEAINITWEKQTQKFPHPIEISEDVITGPTIKNMDGTFNVTSCLKLNSSQEDPGTVYQCVVRHASLHTPLRSNFTLTAARHSLSETEKTDNFS
